Source: US20190076445A1 (UNIVERSITY OF CINCINNATI, published 2019)

T1: human FcϵRIα (human, UniProt P12319 26-257)
T1 construct: whole, on cells; also called huFcϵRIα
T1 sequence (looked up): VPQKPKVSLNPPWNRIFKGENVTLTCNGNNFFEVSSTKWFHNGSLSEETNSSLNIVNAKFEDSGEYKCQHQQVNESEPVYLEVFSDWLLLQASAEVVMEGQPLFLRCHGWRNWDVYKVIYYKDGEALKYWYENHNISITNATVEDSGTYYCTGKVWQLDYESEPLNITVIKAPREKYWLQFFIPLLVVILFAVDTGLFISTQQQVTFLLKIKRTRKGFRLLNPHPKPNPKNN


Molecular target: T1, human FcϵRIα
Assay: summary of Examples 1-7 (huFcϵRIα mice, peritoneal mast cells, flow cytometry)

| binding result | Binder |
| --- | --- |
| binds | IB10 (antibody, V domains shown, mAb from a hybridoma (ATCC PTA-125116); also called anti-FcϵRIα monoclonal antibody IB10; anti-huFcϵRIα mAb) VH: QVQLQQPGAELVRPGASVKLSCKASGYSFTSYWMNWVNQRPGQGLEWIGMIHPSDSETRLNPNFKDRATLTVDKSSSTAYMQLSSPTSEDSAVYYCARGSLYDGYLFLYWGQGTLVTVSA VL: DIVMTQSPLSLPVSLGDQASISCRSSQSILHSNGDTYLEWYLQKPGQSPKLLIYKVSNRFSGVPDRFSGSGSGTDFTLKISRVEAEDLGVYYCFQGSYVPFTFGSGTKLEIKR |
| binds | IE7 (antibody, mouse IgG1, V domains shown, Mouse IgG1 mAb from a hybridoma (ATCC PTA-125115); also called anti-FcϵRIα monoclonal antibody IE7; anti-huFcϵRIα mAb) VH: QVQLQESGGDVVKPGGSLKLSCAASGFTFSFYGMSWVRQTPDKKLEWVATISGGGNYTYYPDSVKGRFTISRDNAMNTLYLQMNSLKSEDTAMYYCVRAYYGNWNSYWGQGTLVTVS VL: DIVMTQTPSSMYASLGERVTITCKASQDINNYLSWFQQKPGRSPKTLIYRANRLMDGVPSRIRGSGSGQDYSLTISSLEYEDMGIYYCLLYNEFPWMFGGGTKLEIKR |
